Reference: patent publication US20230220104A1 (BRIGHTPATH BIOTHERAPEUTICS, published 2023)
Positions count from the first letter of the chain named. Where two headings read alike, the source gives them in different places. Values belong to the binder of their own block, whether it stands above or below them.

How the values were obtained:
[1] = target: T1, human CD73 on cells (H322, MDA-MB-231, HT-144, T cells, CD73-transfected HEK293T) (human, UniProt P21589 27-549); assay: cell-based or functional assay
T1 sequence (looked up): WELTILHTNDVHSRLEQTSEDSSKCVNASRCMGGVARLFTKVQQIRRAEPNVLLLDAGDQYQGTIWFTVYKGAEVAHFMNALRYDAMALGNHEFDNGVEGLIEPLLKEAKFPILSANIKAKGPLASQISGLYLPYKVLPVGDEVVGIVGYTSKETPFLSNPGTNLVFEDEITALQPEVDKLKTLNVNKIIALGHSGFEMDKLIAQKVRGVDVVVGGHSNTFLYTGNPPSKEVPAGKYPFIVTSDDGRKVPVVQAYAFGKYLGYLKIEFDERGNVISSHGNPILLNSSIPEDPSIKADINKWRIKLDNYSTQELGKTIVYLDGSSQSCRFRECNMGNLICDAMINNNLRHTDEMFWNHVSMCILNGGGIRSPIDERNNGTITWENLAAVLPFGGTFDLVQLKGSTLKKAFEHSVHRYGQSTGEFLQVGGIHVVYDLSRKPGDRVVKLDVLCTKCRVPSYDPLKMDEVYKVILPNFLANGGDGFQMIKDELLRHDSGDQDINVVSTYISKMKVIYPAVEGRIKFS

[2] = target: T1, human CD73 on cells (H322, MDA-MB-231, …); assay: flow cytometry on H322 cells (endogenous CD73), fluorescently labeled secondary antibody, PE channel
[3] = target: T1, human CD73 on cells (H322, MDA-MB-231, …); assay: cell-based or functional assay; remark: listed apart in the source
[4] = target: T2, cynomolgus CD73 (Biacore analyte) (cynomolgus, UniProt A0A2K5V5U7 27-547); assay: SPR, Biacore 8K, antibody captured on CM5 chip, CD73 as analyte, multicycle kinetics, 1:1 model
T2 sequence: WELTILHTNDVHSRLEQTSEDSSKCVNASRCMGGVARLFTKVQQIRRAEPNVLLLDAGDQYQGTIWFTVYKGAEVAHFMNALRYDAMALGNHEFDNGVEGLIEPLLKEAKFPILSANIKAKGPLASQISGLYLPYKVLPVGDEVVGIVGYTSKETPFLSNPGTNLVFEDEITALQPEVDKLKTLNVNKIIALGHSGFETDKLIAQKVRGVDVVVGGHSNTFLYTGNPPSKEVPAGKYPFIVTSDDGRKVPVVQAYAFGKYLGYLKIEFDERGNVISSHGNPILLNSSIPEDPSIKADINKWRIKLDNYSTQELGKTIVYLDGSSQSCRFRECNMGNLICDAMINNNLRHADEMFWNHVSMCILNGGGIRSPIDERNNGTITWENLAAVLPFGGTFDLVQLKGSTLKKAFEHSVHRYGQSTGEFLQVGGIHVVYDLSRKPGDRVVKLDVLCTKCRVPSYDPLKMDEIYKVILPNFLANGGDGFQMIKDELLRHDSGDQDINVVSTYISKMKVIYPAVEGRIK

[5] = target: T3, human CD73 antigen (Biacore analyte) (human, UniProt P21589 27-547, limits assumed); assay: as above
T3 sequence (looked up): T2 sequence with T199M, A350T, I466V

[6] = target: T1, human CD73 on cells (H322, MDA-MB-231, …); assay: cell-based or functional assay; remark: listed apart in the source
[7] = target: T1, human CD73 on cells (H322, MDA-MB-231, …); assay: flow cytometry on MDA-MB-231 cells (endogenous CD73), fluorescently labeled secondary antibody, PE channel

IC50 of AMP degradation suppressive function, H322 cells [1]: 0.089 µg/mL
B1: 002_m antibody (antibody, V domains shown)
VH: QVQMKQSGPELVKPGASVKIPCKASGYTFTDCNMDWVKQSHGESLEWIGDINPNNGGTIYNQKFKGKVTLTIDKSSSTAYMELRSLTSEDTAVYYCARTNWDYAMDYWGQGTSVTVSS
VL: DIQMTQSPSSMYASLGERVTITCKASQDINSNLSWFQQKPGKSPKTLIYRANRLIDGVPSRFSGSGSGQDYSLTISSLEYEDMGIYYCLQYDVFPRTFGGGTKLELK

binding result [2]: binds
B2: 005_m antibody (antibody, V domains shown)
VH: DVQLVESGPGLVAPSQSLSITCTVSGFSLTSYGVSWVRQPPGKGLEWLGVIWGDGSTNYHSALISRLSISKDNSKSQVFLKLNSLQTDDTATYYCAKTNIFYDYDWYLDVWGAGTTVTVSS
VL: DIVMTQAPLSLPVSLGDQASISCRSSQSLVHSNGNTYLHWYLQKPGQSPKLLIYKVSNRFSGVPDRFSGSGSGTDFTLKISRVEAEDLGVYFCSHSTHVPWTFGGGTKLELK
notes: Mouse antibody expressed recombinantly in CHO cells

IC50 of AMP degradation suppressive function, MDA-MB-231 cells [3]: 0.032 µg/mL | Kd [4]: 0.273 nM | Kd [5]: 0.204 nM | IC50 of AMP degradation suppressive function, H322 cells [6]: 0.069 µg/mL
B3: 002_6_h4 antibody (antibody, V domains shown)
VH: QVQMKQSAAEVRKPGASVKVSCKASGYTFTDSNMDWVRQAPGQGLEWMGDINPNNGGTIYNQKFKGRVTMTIDTSRSTAYMELRSLRSDDTAVYYCARTNWDYAMDYWGQGTTVTVSS
VL: DIQMTQSPSFLSASVGDRVTITCKASQDINSQLSWYQQKPGKAPKTLIYRANRLIDGVPSRFSGSGSGTDFTLTISSLQYEDMATYYCLQYDVFPRTFGGGTKLEIK
notes: Humanized antibody of 002_6_c; also called humanized anti-CD73 antibody 002_6_h4; lead antibody

Kd [4]: 0.457 nM | Kd [5]: 0.426 nM
B4: 006_hKB antibody (antibody, V domains shown)
VH: QVQLLQSGAEVKKPGESVKISCKASGYTFTSYWMHWVKQRPGQGLEWIGEINPSNARTNYNENFKSRFTITVDKSTSTAYMQFSRLRSDDTAVYYCARRGTSGNYFDFWGQGTMLTVSS
VL: DIQMTQSPSSLSASLGQRVTITCKASQDINTYLSWFQQKPGKPPKTLIYRANRLVDGVPSRFSGSGSGEDYSLTISSLQSEDFGVYYCLQYDEFPYTFGPGTRLEIK
notes: Humanized antibody based on 006_m

binding result [7]: binds
B5: 009_m antibody (antibody, V domains shown)
VH: QVQLQQSGAELVRPGASVKLSCKASGYTFTSYWMNWVKQRPEPGLEWIGRIDPYDSEAHYNQKFKDKAILTVDKSSSTAYMQLSSLTSEDSAVYYCTRIRYGTFDYWGQGTTLTVSS
VL: DIVLTQSPSSMYASLGERVTITCKASQDINSYLSWFQQKPGKSPKTLIYRSNSLVDGVPSRFSGSGSGQDYSLTISSLEYEDMGSYYCLQYDEFPYTFGGGTRLEIKR
notes: as for B2
